# Measurements published in patent US20160305952A1 (ROCHE SEQUENCING SOLUTIONS, published 2016).
# Columns and labels:
# streptavidin [1] = biological target: T1, streptavidin (UniProt P22629 37-163, limits assumed); test: SPR, Biacore X100, streptavidin on CM5 chip, peptide in solution
# T1 construct: amine-coupled to a CM5 chip for SPR; also called SA
# From the text: (§1) A selection of streptavidin peptide binders listed in Table 15 were synthesized using standard column-based synthesis techniques by UW Biotechnology center (Madison, Wis.) or by Peptide2.0 (Chantilly, Va.) at 98-99% purity. Strep-tag II peptide NH2-[…]-COOH was purchased from IBA GmbH (Goettingen, Germany). Synthesized peptides were then characterized by Surface Plasmon Resonance (SPR) to identify binding characteristics including the association rate constant (kₛ), dissociation rate constant (kd), and equilibrium dissociation […] (kd/kₐ=KD). In one aspect, SPR experiments were performed by using Biacore X100 instrument (GE Healthcare). Preliminarily, 60 μl of 100 μg/ml streptavidin in 10 mM Na-acetate, pH5.0 was immobilized to flow cell 2 (Fc2) of a sensor chip CM5 (GE Healthcare) using Amine Coupling Kit (GE Healthcare) at 20° C. for 6 min. Peptide stock solutions were prepared at 5 or 10 mM concentration in water and diluted in HBS-EP+ (GE Healthcare) buffer before SPR experiments. Peptide binding was performed in a multiple kinetics mode using HBS-EP+ as a running buffer and 0.2 M NaCl, 10 mM NaOH or 10 mM HCl-glycine, […] as regeneration buffer. Binding kinetics parameters were calculated with Biacore X100 software.
# streptavidin [2] = biological target: T1, streptavidin; test: SPR, Biacore X100, streptavidin on CM5 chip, peptide in solution; second KD value printed for the same peptide
# From the text: as §1
# streptavidin [3] = biological target: T1, streptavidin; test: SPR
# From the text: as §1
# T1 sequence (P22629 37-163 limits assumed): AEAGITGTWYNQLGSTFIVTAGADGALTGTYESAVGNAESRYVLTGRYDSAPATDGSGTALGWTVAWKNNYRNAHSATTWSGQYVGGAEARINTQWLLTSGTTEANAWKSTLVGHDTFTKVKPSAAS
Binder,Kd (streptavidin [1]),Kd (streptavidin [2]),fold change in KD as compared with the parent peptide … (streptavidin [3]),koff (streptavidin [1]),kon (streptavidin [1])
H-EWVHPQFEQKAK-NH2 (free peptide) [NH2-EWVHPQFEQKAK-amide],5.68 µM,5.87 µM,–,–,–
H-RDPAPAWAHGGG-NH2 (free peptide) [NH2-RDPAPAWAHGGG-amide],4.66 µM,–,≥ 100 fold,0.0696 s⁻¹,14900 M⁻¹ s⁻¹
